The source of these data is the Immune Epitope Database (IEDB).

pKd: −log10 of the molar value.

The target in one experiment is HLA-A*02:01. Description: IEDB peptide-MHC binding, purified MHC/competitive/fluorescence; filed as Kd, often an IC50 or EC50 that approximates it; ≥ and ≤ were set here for values at or beyond the usual limits of such assays.
The target in a further experiment is HLA-A*02:12. The description is as above. The note with it: source organism: Xanthobacter autotrophicus Py2.
Another experiment has as its target HLA-A*03:01. Described as above. The settings on record: source organism: Xanthobacter autotrophicus Py2.
In the next experiment the target is HLA-A*25:01. The description is as above. The settings on record: source organism: Xanthobacter autotrophicus Py2.
Experiment [1] has as its target HLA-A*26:01. The description is as above. The settings on record: source organism: Xanthobacter autotrophicus Py2.
In the next experiment the target is HLA-A*29:02. The experiment is described as above. The note with it: source organism: Xanthobacter autotrophicus Py2.
The next experiment has as its target HLA-A*68:02. The description is as above.
For experiment [2], the target named is HLA-A*69:01. The experiment is described as above. The settings on record: source organism: Xanthobacter autotrophicus Py2.
For the next experiment, the target named is HLA-A*80:01. The description is as above. The note with it: source organism: Xanthobacter autotrophicus Py2.
A further experiment deals with HLA-B*15:17. The experiment is described as above.
In a further experiment the target is HLA-B*18:01. Described as above. The note with it: source organism: Xanthobacter autotrophicus Py2.
Another experiment has as its target HLA-B*27:03. Described as above. The note with it: source organism: Xanthobacter autotrophicus Py2.
The target of experiment [3] is HLA-B*46:01. The description is as above. The note with it: source organism: Xanthobacter autotrophicus Py2.
A further experiment deals with HLA-B*51:01. The experiment is described as above. The note with it: source organism: Xanthobacter autotrophicus Py2.
The target of experiment [4] is HLA-B*57:01. Described as above. The settings on record: source organism: Xanthobacter autotrophicus Py2.
The target in the next experiment is HLA-C*03:03. Description: IEDB peptide-MHC binding, purified MHC/direct/fluorescence; filed as Kd, often an IC50 or EC50 that approximates it; ≥ and ≤ were set here for values at or beyond the usual limits of such assays. The settings on record: source organism: Rickettsia bellii RML369-C.
A further experiment concerns the target HLA-C*05:01. The experiment is described as above. The settings on record: source organism: Rickettsia bellii RML369-C.
In the next experiment the target is HLA-C*07:02. The experiment is described as above. The settings on record: source organism: Rickettsia bellii RML369-C.
In a further experiment the target is HLA-C*08:02. The experiment is described as above. The note with it: source organism: Rickettsia bellii RML369-C.
The target in the next experiment is HLA-C*12:03. Described as above. The note with it: source organism: Rickettsia bellii RML369-C.
The target in a further experiment is HLA-C*14:02. The experiment is described as above. The note with it: source organism: Rickettsia bellii RML369-C.
The next experiment deals with HLA-C*15:02. The description is as above. The note with it: source organism: Rickettsia bellii RML369-C.
In a further experiment the target is HLA-A*68:23. Description: IEDB peptide-MHC binding, purified MHC/competitive/fluorescence; filed as Kd, often an IC50 or EC50 that approximates it; ≥ and ≤ were set here for values at or beyond the usual limits of such assays. The settings on record: source organism: Rickettsia bellii RML369-C.
The next experiment has as its target HLA-B*15:02. Described as above. The note with it: source organism: Rickettsia bellii RML369-C.
For another experiment, the target named is HLA-B*15:42. The experiment is described as above. The settings on record: source organism: Rickettsia bellii RML369-C.
The next experiment addresses HLA-B*27:20. The experiment is described as above. The settings on record: source organism: Rickettsia bellii RML369-C.
Another experiment has as its target HLA-B*45:06. The experiment is described as above. The settings on record: source organism: Rickettsia bellii RML369-C.
The target of a further experiment is HLA-B*83:01. The description is as above. The settings on record: source organism: Rickettsia bellii RML369-C.
The target of the next experiment is HLA-C*06:02. The experiment is described as above. The note with it: source organism: Rickettsia bellii RML369-C.
A further experiment has as its target HLA-A*01:01. In words: IEDB peptide-MHC binding, purified MHC/direct/fluorescence; filed as Kd, often an IC50 or EC50 that approximates it; ≥ and ≤ were set here for values at or beyond the usual limits of such assays. The settings on record: source organism: Camelpox virus CMS.
In experiment [5] the target is HLA-A*26:01. The description is as above. The settings on record: source organism: Variola virus.
Another experiment addresses HLA-A*31:01. Described as above. The settings on record: source organism: Camelpox virus CMS.
Experiment [6] concerns the target HLA-A*69:01. The experiment is described as above. The note with it: source organism: Camelpox virus CMS.
In another experiment the target is HLA-B*07:02. The experiment is described as above. The note with it: source organism: Camelpox virus CMS.
The target of another experiment is HLA-B*15:01. Described as above. The note with it: source organism: Camelpox virus CMS.
Another experiment deals with HLA-B*27:05. The experiment is described as above. The note with it: source organism: Camelpox virus CMS.
The target in experiment [7] is HLA-B*46:01. The experiment is described as above. The note with it: source organism: Camelpox virus CMS.
The target of another experiment is HLA-B*48:01. The experiment is described as above. The settings on record: source organism: Camelpox virus CMS.
The target of experiment [8] is HLA-B*57:01. Described as above. The note with it: source organism: Camelpox virus CMS.
The target of another experiment is HLA-B*58:01. Described as above. The note with it: source organism: Camelpox virus CMS.
In the next experiment the target is HLA-A*11:01. In words: IEDB peptide-MHC binding, purified MHC/competitive/fluorescence; filed as Kd, often an IC50 or EC50 that approximates it; ≥ and ≤ were set here for values at or beyond the usual limits of such assays. The settings on record: source organism: Vaccinia virus Tian Tan.
A further experiment addresses HLA-A*26:02. The experiment is described as above. The settings on record: source organism: Vaccinia virus Tian Tan.
The next experiment deals with HLA-B*15:09. The description is as above. The note with it: source organism: Vaccinia virus Tian Tan.
For a further experiment, the target named is HLA-B*35:01. Described as above. The note with it: source organism: Vaccinia virus Tian Tan.
The target of another experiment is HLA-B*39:01. Described as above. The note with it: source organism: Vaccinia virus Tian Tan.
The target in another experiment is HLA-A*32:01. Description: IEDB peptide-MHC binding, purified MHC/competitive/radioactivity; filed as Kd, often an IC50 or EC50 that approximates it; ≥ and ≤ were set here for values at or beyond the usual limits of such assays. The note with it: source organism: Vaccinia virus WR.
The target of the next experiment is HLA-B*15:03. The experiment is described as above. The note with it: source organism: Vaccinia virus WR.
Setting [9] is: source organism: Xanthobacter autotrophicus Py2.
The mark [10] stands for this setting: source organism: Vaccinia virus Tian Tan.

As for GQMYNMNTL, the pKd (usually −log10 of the Kd, conventionally taken in molar units) with HLA-A*02:01 (setting [9]) was at most 4.70; with HLA-A*02:12, 8.85; with HLA-A*03:01, at most 4.70; with HLA-A*25:01, at most 4.70; in the experiment with HLA-A*26:01 [1], at most 4.70; with HLA-A*29:02 it was at most 4.70. Besides, the pKd with HLA-A*68:02 (setting [9]), with HLA-A*69:01 [2], with HLA-A*80:01, in the experiment with HLA-B*15:17 (setting [9]), with HLA-B*18:01 and with HLA-B*27:03 was at most 4.70 in each case. The pKd in the experiment with HLA-B*46:01 [3], with HLA-B*51:01 and in the experiment with HLA-B*57:01 [4] was at most 4.70 in each case.

As for FAYKTGSSM, the pKd in the experiment with HLA-C*03:03 is at least 9.00; in the experiment with HLA-C*05:01, 5.83; with HLA-C*07:02, 6.06; with HLA-C*08:02 it was 7.05; with HLA-C*12:03 it was at least 9.00; with HLA-C*14:02 it was 6.94. Moreover, the pKd with HLA-C*15:02 is 8.40; with HLA-A*68:23 it was 7.29; in the experiment with HLA-B*15:02, 7.90; in the experiment with HLA-B*15:42, at most 5.30; with HLA-B*27:20, 7.63; in the experiment with HLA-B*45:06, at most 5.30. Further, the pKd was at most 5.30 in the experiment with HLA-B*83:01 and 6.90 with HLA-C*06:02.

Regarding WQFAIHYSF, the pKd with HLA-A*01:01 is at most 4.70; with HLA-A*26:01 [5], at most 4.70; with HLA-A*31:01, at most 4.70; with HLA-A*69:01 [6], at most 4.70; in the experiment with HLA-B*07:02 it was at most 4.70; in the experiment with HLA-B*15:01, 6.89. Besides, the pKd is 6.56 with HLA-B*27:05; at most 4.70 in the experiment with HLA-B*46:01 [7]; 6.80 with HLA-B*48:01; at most 4.70 in the experiment with HLA-B*57:01 [8]; at most 4.70 in the experiment with HLA-B*58:01; at most 4.70 with HLA-A*02:01 (setting [10]). Besides, the pKd in the experiment with HLA-A*11:01 was at most 4.70; with HLA-A*26:02 it was 6.08; with HLA-A*68:02 (setting [10]), at most 4.70; in the experiment with HLA-B*15:09, at most 4.70; with HLA-B*15:17 (setting [10]) it was 5.33; in the experiment with HLA-B*35:01 it was 6.04. Further, the values for the pKd with HLA-B*39:01, with HLA-A*32:01 and in the experiment with HLA-B*15:03 were 6.22, 8.56 and 8.35, respectively.
